Laboratory results as given in patent publication US20140186359A1 (TORAY INDUSTRIES, published 2014).

T1: human CAPRIN-1 expressed on the surface of human cancer cells (human, UniProt Q14444 2-709)
T1 sequence: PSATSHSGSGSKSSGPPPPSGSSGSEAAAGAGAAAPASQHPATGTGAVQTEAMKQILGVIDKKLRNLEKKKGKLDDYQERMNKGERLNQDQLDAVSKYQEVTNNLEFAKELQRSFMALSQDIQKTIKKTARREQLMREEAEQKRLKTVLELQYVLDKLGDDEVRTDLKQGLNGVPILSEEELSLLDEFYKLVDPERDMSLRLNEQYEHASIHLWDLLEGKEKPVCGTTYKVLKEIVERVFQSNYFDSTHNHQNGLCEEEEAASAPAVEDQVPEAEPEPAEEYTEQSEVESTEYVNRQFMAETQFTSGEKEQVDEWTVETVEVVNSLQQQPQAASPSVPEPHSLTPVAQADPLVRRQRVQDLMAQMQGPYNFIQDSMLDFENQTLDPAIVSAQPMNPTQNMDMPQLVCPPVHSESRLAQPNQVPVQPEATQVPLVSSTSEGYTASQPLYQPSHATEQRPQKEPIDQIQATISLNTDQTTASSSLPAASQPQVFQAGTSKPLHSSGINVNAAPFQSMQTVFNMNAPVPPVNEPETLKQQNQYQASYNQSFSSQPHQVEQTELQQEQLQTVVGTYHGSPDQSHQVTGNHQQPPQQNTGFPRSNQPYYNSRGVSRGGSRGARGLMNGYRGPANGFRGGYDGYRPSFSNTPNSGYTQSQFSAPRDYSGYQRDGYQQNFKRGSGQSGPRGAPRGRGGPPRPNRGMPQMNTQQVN

B1: human-mouse chimeric monoclonal antibody #2 (antibody, human IgG1, kappa, V domains shown)
VH: GGGLVKPGGSLKLSCAASGFTFSSYGMSWVRQTPEKRLEWVATISSGGSYTYYPDSVKGRFTISRDNAKNTLYLQMSSLRSEDTAMYYCASLASYYFDYWGQGTTLTVSS
VL: GARCDVQMIQSPSSLSASLGDIVTMTCQASQGTSINLNWFQQKPGKAPKLLIYGASSLEDGVPSRFSGSCFGTDFTLTISSLEDEDMATYFCLQHSYLPPLTFGAGTKLELKR
B2: human-mouse chimeric monoclonal antibody #3 (antibody, human IgG1, kappa, V domains shown)
VH: GGGLVKPGGSLKLSCAASGFTFSSYGMSWVRQTPEKRLEWVATISSGGSYTYYPDSVKGRFTISRDNAKNTLYLQMSSLRSEDTAMYYCASLASYYFDYWGQGTTLTVSS
VL: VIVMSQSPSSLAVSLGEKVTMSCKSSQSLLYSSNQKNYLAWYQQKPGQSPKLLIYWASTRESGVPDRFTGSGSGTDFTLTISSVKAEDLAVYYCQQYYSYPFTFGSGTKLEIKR
B3: human-mouse chimeric comparative monoclonal antibody 1 (antibody, human IgG1, kappa)
heavy: not shown
light: DIQMTQSPASLSASVGETVTITCRASGNIHNYLAWYQQKQGKSPQLLVYNAKTLADGVPSRFSGSGSGTQYSLKINSLQPEDFGSYYCQHFWSTLTFGAGTKLELKRADAAPTVSNPYDTVAAPSVFIFPPSDEQLKSGTASVVCLLNNFYPREAKVQWKVDNALQSGNSQESVTEQDSKDSTYSLSSTLTLSKADYEKHKVYACEVTHQGLSSPVTKSFNRGEC
B4: human-mouse chimeric comparative monoclonal antibody 2 (antibody, human IgG1, kappa)
heavy: not shown
light: AVLRCSRGLLVIWISDIQLTQSPSSLAVTAGEKVTMSCKSSQSLLWSVNQKNYLSWYQQKQRQPPKLLIYGASIRESWVPDRFTGSGSGTDFTLTISNVHAEDLAVYYCQHNHGSFLPSRSEQVPSWRSNNRTVAAPSVFIFPPSDEQLKSGTASVVCLLNNFYPREAKVQWKVDNALQSGNSQESVTEQDSKDSTYSLSSTLTLSKADYEKHKVYACEVTHQGLSSPVTKSFNRGEC
B5: human-chicken chimeric monoclonal antibody #1 (antibody, V domains shown)
VH: AVTLDESGGGLQTPGGALSLVCKASGFTFRSHSMFWVRQAPGKGLEYVAGIYGVGRSIRYGSAVKGRATMSRDNGQSTVRLQLNNLRAEDTATYYCAKSGYFSNSRYWDSGAYFIDAWGHGTEVIVS
VL: ALTQPASVSANPGETVEITCSGGYSNYGWYQQKSPGSAPVTVIYYNDKRPSDIPSRFSGSKSGSTATLTITGVQAEDEAVYFCGGYDSSTDAGIFGAGTTLTV
B6: human-chicken chimeric monoclonal antibody #2 (antibody, V domains shown)
VH: AVTLDESGGGLQTPGGALSLVCKASGFTFRSHSMFWVRQAPGKGLEYVAGIYGVGRSIRYGSAVKGRATMSRDNGQSTVRLQLNNLRAEDTGTYYCAKSGYFSNRRYWDSGAYFIDAWGHGTEVIVS
VL: ALTQPASVSANLGGTVEITCSGGYSNYGWYQQKSPGSAPVTVIYYNDKRPSDIPSRFSGSKSGSTGTLTITGVRAEDEAVYYCGGYDSSTDAGIFGAGTTLTV
B7: human-chicken chimeric monoclonal antibody #3 (antibody, V domains shown)
VH: AVTLDESGGGLQTPGGGLSLVCKGSGFTFSSFGMFWVRQAPGKGLEFVASISDNGRSTYYGSAVKGRATISRDDGQSTVRLQLNNLRAEDTGTYYCAKNAYVGRGCCFSYSIDAWGHGTEVIVS
VL: ALTQPASVSVNPGETVKITCSGGGSSSDAYGWYQQKSPGSAPVTLIYNGSNRPSHIPSRFSGSTSGSTNTLTITGVQVEDEAIYFCGSTDTSTSVGIFGAGTTLTV
B8: human-mouse chimeric monoclonal antibody #1 (antibody, V domains shown)
VH: GPGLVQPSQSLSITCTVSGFSLTTYDLHWVRQSPGKGLEWLGVIWSGGSTDYNAAFISRLSISKDNSKSQVFFKMNSLQANDTAIYYCARNYGYSAWFAYWGQGTLVTVSA
VL: DVLMTQTPLSLPVSLGDQASISCRSSQSIVHSNGNTYLEWYLQKPGQSPKLLIYKVSNRFSGVPDRFSGSGSGTDFTLKISRVEAEDLGVYYCFQGSHVPLTFGAGTKLELKR
B9: human-chicken chimeric monoclonal antibody #4 (antibody, V domains shown)
VH: AVTLDESGGGLQTPGGAVSLVCKGSGFTFSSYGMGWVRQAPGKGLEYVAAIRKDGSTNYGPAVKGRATISRDNGQSTVRLQLSNLRAEDTATYYCAKRSHTGVNAAKIDAWGRGTEVIVS
VL: ALTQPASVSANPGETVKITCSGASHNYGWFQQKSPGSAPVTVIYSNDKRPSDIPSRFSGSKSGSTATLTITGVQADDEAVYFCGGYNIYGPTFGAGTTLTV
Wherever ADCC cytotoxic activity (51Cr release) against A549 is given: test concentration or dose not given here.
Wherever ADCC cytotoxic activity (51Cr release) against Caki-1 is given: test concentration or dose not given here.
Wherever ADCC cytotoxic activity (51Cr release) against Caki-2 is given: test concentration or dose not given here.
Wherever ADCC cytotoxic activity (51Cr release) against DLD-1 is given: test concentration or dose not given here.
Wherever ADCC cytotoxic activity (51Cr release) against HCT-116 is given: test concentration or dose not given here.
Wherever ADCC cytotoxic activity (51Cr release) against MCF7 is given: test concentration or dose not given here.
Wherever ADCC cytotoxic activity (51Cr release) against MDA-MB-436 is given: test concentration or dose not given here.
Wherever ADCC cytotoxic activity (51Cr release) against MIAPaCa-2 is given: test concentration or dose not given here.
Wherever ADCC cytotoxic activity (51Cr release) against Panc-1 is given: test concentration or dose not given here.
Wherever ADCC cytotoxic activity (51Cr release) against QG56 is given: test concentration or dose not given here.

These binders were tested against T1, human CAPRIN-1 expressed on the surface … (assay: cell-based or functional assay).
B1 was tested, and the “ADCC cytotoxic activity (51Cr release) against Caki-2” value was at least 18%, the “ADCC cytotoxic activity (51Cr release) against HCT-116” value was at least 18% and the “ADCC cytotoxic activity (51Cr release) against MCF7” value was at least 32%. The “ADCC cytotoxic activity (51Cr release) against MIAPaCa-2” value was at least 32%, the “ADCC cytotoxic activity (51Cr release) against QG56” value was at least 10% and the “ADCC cytotoxic activity (51Cr release) against all other cancer cell lines listed” value was at least 10%.
With B2 the “ADCC cytotoxic activity (51Cr release) against Caki-2” value was at least 18%, the “ADCC cytotoxic activity (51Cr release) against HCT-116” value was at least 18% and the “ADCC cytotoxic activity (51Cr release) against MCF7” value was at least 32%. The “ADCC cytotoxic activity (51Cr release) against MIAPaCa-2” value was at least 32%, the “ADCC cytotoxic activity (51Cr release) against QG56” value was at least 10% and the “ADCC cytotoxic activity (51Cr release) against all other cancer cell lines listed” value was at least 10%.
For B3, the “ADCC cytotoxic activity (51Cr release) against Caki-2” value was under 8%, the “ADCC cytotoxic activity (51Cr release) against HCT-116” value was under 3% and the “ADCC cytotoxic activity (51Cr release) against MCF7” value was under 5%. The “ADCC cytotoxic activity (51Cr release) against MIAPaCa-2” value was 7%, the “ADCC cytotoxic activity (51Cr release) against QG56” value was under 5% and the “ADCC cytotoxic activity (51Cr release) against all other cancer cell lines listed” value was under 4%.
With B4 the “ADCC cytotoxic activity (51Cr release) against Caki-2” value was under 8%, the “ADCC cytotoxic activity (51Cr release) against HCT-116” value was under 3% and the “ADCC cytotoxic activity (51Cr release) against MCF7” value was under 5%. The “ADCC cytotoxic activity (51Cr release) against MIAPaCa-2” value was 7%, the “ADCC cytotoxic activity (51Cr release) against QG56” value was under 5% and the “ADCC cytotoxic activity (51Cr release) against all other cancer cell lines listed” value was under 4%.
In the case of B5, the “ADCC cytotoxic activity (51Cr release) against A549” value is reported as at least 12%, the “ADCC cytotoxic activity (51Cr release) against Caki-1” value is reported as at least 14% and the “ADCC cytotoxic activity (51Cr release) against Caki-2” value is reported as at least 34%. For the same binder, the “ADCC cytotoxic activity (51Cr release) against DLD-1” value was at least 15%, the “ADCC cytotoxic activity (51Cr release) against HCT-116” value was at least 19% and the “ADCC cytotoxic activity (51Cr release) against MCF7” value was at least 30%. The “ADCC cytotoxic activity (51Cr release) against MDA-MB-436” value was at least 18%, the “ADCC cytotoxic activity (51Cr release) against MIAPaCa-2” value was at least 28% and the “ADCC cytotoxic activity (51Cr release) against Panc-1” value was at least 18%. For the same binder, the “ADCC cytotoxic activity (51Cr release) against QG56” value was at least 10% and the “ADCC cytotoxic activity (51Cr release) against all other cancer cell lines listed” value was at least 10%.
B6 was tested, and the “ADCC cytotoxic activity (51Cr release) against A549” value was at least 12%, the “ADCC cytotoxic activity (51Cr release) against Caki-1” value was at least 14% and the “ADCC cytotoxic activity (51Cr release) against Caki-2” value was at least 34%. For the same binder, the “ADCC cytotoxic activity (51Cr release) against DLD-1” value was at least 15%, the “ADCC cytotoxic activity (51Cr release) against HCT-116” value was at least 19% and the “ADCC cytotoxic activity (51Cr release) against MCF7” value was at least 30%. The “ADCC cytotoxic activity (51Cr release) against MDA-MB-436” value was at least 18%, the “ADCC cytotoxic activity (51Cr release) against MIAPaCa-2” value was at least 28% and the “ADCC cytotoxic activity (51Cr release) against Panc-1” value was at least 18%. The “ADCC cytotoxic activity (51Cr release) against QG56” value was at least 10% and the “ADCC cytotoxic activity (51Cr release) against all other cancer cell lines listed” value was at least 10%.
B7 was tested, and the “ADCC cytotoxic activity (51Cr release) against A549” value was at least 12%, the “ADCC cytotoxic activity (51Cr release) against Caki-1” value was at least 14% and the “ADCC cytotoxic activity (51Cr release) against Caki-2” value was at least 34%. For the same binder, the “ADCC cytotoxic activity (51Cr release) against DLD-1” value was at least 15%, the “ADCC cytotoxic activity (51Cr release) against HCT-116” value was at least 19% and the “ADCC cytotoxic activity (51Cr release) against MCF7” value was at least 30%. For the same binder, the “ADCC cytotoxic activity (51Cr release) against MDA-MB-436” value was at least 18%, the “ADCC cytotoxic activity (51Cr release) against MIAPaCa-2” value was at least 28% and the “ADCC cytotoxic activity (51Cr release) against Panc-1” value was at least 18%. The “ADCC cytotoxic activity (51Cr release) against QG56” value was at least 10% and the “ADCC cytotoxic activity (51Cr release) against all other cancer cell lines listed” value was at least 10%.
B8 was tested, and the “ADCC cytotoxic activity (51Cr release) against Caki-2” value was at least 34%, the “ADCC cytotoxic activity (51Cr release) against HCT-116” value was at least 19% and the “ADCC cytotoxic activity (51Cr release) against MCF7” value was at least 30%. The “ADCC cytotoxic activity (51Cr release) against MIAPaCa-2” value was at least 28%, the “ADCC cytotoxic activity (51Cr release) against QG56” value was at least 10% and the “ADCC cytotoxic activity (51Cr release) against all other cancer cell lines listed” value was at least 10%.
In the case of B9, the “ADCC cytotoxic activity (51Cr release) against A549” value is reported as at least 12%, the “ADCC cytotoxic activity (51Cr release) against Caki-1” value is reported as at least 14% and the “ADCC cytotoxic activity (51Cr release) against Caki-2” value is reported as at least 34%. For the same binder, the “ADCC cytotoxic activity (51Cr release) against DLD-1” value was at least 15%, the “ADCC cytotoxic activity (51Cr release) against HCT-116” value was at least 19% and the “ADCC cytotoxic activity (51Cr release) against MCF7” value was at least 30%. The “ADCC cytotoxic activity (51Cr release) against MDA-MB-436” value was at least 18%, the “ADCC cytotoxic activity (51Cr release) against MIAPaCa-2” value was at least 28% and the “ADCC cytotoxic activity (51Cr release) against Panc-1” value was at least 18%. The “ADCC cytotoxic activity (51Cr release) against QG56” value was at least 10% and the “ADCC cytotoxic activity (51Cr release) against all other cancer cell lines listed” value was at least 10%.
